What was measured:
[1] = molecular target: human polyclonal IgG (Gammanorm) (human); assay: pH 6-3 citrate gradient elution from column, peak 2
[2] = molecular target: human polyclonal IgG (Gammanorm) (human); assay: pH 6-3 citrate gradient elution from column, peak 1
[3] = molecular target: human polyclonal IgG (Gammanorm) (human); assay: dynamic binding capacity, 6 min residence; ligand 9.7 mg/ml on agarose beads
[4] = molecular target: human polyclonal IgG (Gammanorm) (human); assay: dynamic binding capacity, measured after 24 h cumulative exposure to 0.5 M NaOH; ligand 9.7 mg/ml on agarose beads
[5] = molecular target: human polyclonal IgG (Gammanorm) (human); assay: dynamic binding capacity, measured after six 4 h cycles in 1.0 M NaOH; ligand 9.7 mg/ml on agarose beads
[6] = molecular target: human polyclonal IgG (Gammanorm) (human); assay: dynamic binding capacity, 6 min residence; ligand 9.7 mg/ml on agarose beads; remark: listed apart in the source
[7] = molecular target: human polyclonal IgG (Gammanorm) (human); assay: dynamic binding capacity, 6 min residence; ligand 7.0 mg/ml on agarose beads
[8] = molecular target: human polyclonal IgG (Gammanorm) (human); assay: dynamic binding capacity, measured after 24 h cumulative exposure to 0.5 M NaOH; ligand […] on agarose beads
[9] = molecular target: human polyclonal IgG (Gammanorm) (human); assay: dynamic binding capacity, measured after 24 h cumulative exposure to 0.5 M NaOH; ligand 7.0 mg/ml on agarose beads
[10] = molecular target: human polyclonal IgG (Gammanorm) (human); assay: dynamic binding capacity, 6 min residence; ligand […] on agarose beads
[11] = molecular target: IgG1 monoclonal antibody (probe molecule, Example 1); assay: SPR (Biacore), ligand on CM5 chip, IgG1 mAb as probe
[12] = molecular target: human polyclonal IgG (Gammanorm) (human); assay: dynamic binding capacity, measured after six 4 h cycles in 1.0 M NaOH; ligand […] on agarose beads
[13] = molecular target: human polyclonal IgG (Gammanorm) (human); assay: dynamic binding capacity, 6 min residence; ligand 7.2 mg/ml on agarose beads
[14] = molecular target: human polyclonal IgG (Gammanorm) (human); assay: dynamic binding capacity, 6 min residence; ligand […] on agarose beads; remark: listed apart in the source
[15] = molecular target: human polyclonal IgG (Gammanorm) (human); assay: dynamic binding capacity, measured after 24 h cumulative exposure to 0.5 M NaOH; ligand 7.2 mg/ml on agarose beads
[16] = molecular target: human polyclonal IgG (Gammanorm) (human); assay: dynamic binding capacity; matrix A56-2, ligand 19.2 mg/ml
[17] = molecular target: human polyclonal IgG (Gammanorm) (human); assay: dynamic binding capacity; matrix A62a, ligand […]
[18] = molecular target: human polyclonal IgG (Gammanorm) (human); assay: dynamic binding capacity; matrix A54, ligand […]; conditions: ligand content 6.7 mg/ml
[19] = molecular target: human polyclonal IgG (Gammanorm) (human); assay: dynamic binding capacity; matrix A20, ligand 21.1 mg/ml
[20] = molecular target: human polyclonal IgG (Gammanorm) (human); assay: dynamic binding capacity; matrix H35, ligand 12.3 mg/ml
[21] = molecular target: human polyclonal IgG (Gammanorm) (human); assay: dynamic binding capacity; matrix H31, ligand 20.0 mg/ml
[22] = molecular target: human polyclonal IgG (Gammanorm) (human); assay: dynamic binding capacity; matrix A56, ligand 7.9 mg/ml
[23] = molecular target: human polyclonal IgG (Gammanorm) (human); assay: dynamic binding capacity; matrix A56, ligand 19.2 mg/ml
[24] = molecular target: human polyclonal IgG (Gammanorm) (human); assay: dynamic binding capacity; matrix A63b, ligand 10.6 mg/ml
[25] = molecular target: human polyclonal IgG (Gammanorm) (human); assay: dynamic binding capacity; matrix A38, ligand 11.6 mg/ml
[26] = molecular target: human polyclonal IgG (Gammanorm) (human); assay: dynamic binding capacity; matrix A38, ligand 15.8 mg/ml
[27] = molecular target: human polyclonal IgG (Gammanorm) (human); assay: dynamic binding capacity; matrix A54, ligand 21.1 mg/ml
[28] = molecular target: human polyclonal IgG (Gammanorm) (human); assay: dynamic binding capacity; matrix A63b, ligand 6.4 mg/ml
[29] = molecular target: human polyclonal IgG (Gammanorm) (human); assay: pH 6-3 citrate gradient elution from column, peak 2; ligand […]
[30] = molecular target: human polyclonal IgG (Gammanorm) (human); assay: dynamic binding capacity; matrix S9, ligand 18.4 mg/ml
[31] = molecular target: human polyclonal IgG (Gammanorm) (human); assay: dynamic binding capacity; matrix C3, ligand 15.1 mg/ml
[32] = molecular target: human polyclonal IgG (Gammanorm) (human); assay: dynamic binding capacity; matrix H40, ligand 23.0 mg/ml
[33] = molecular target: human polyclonal IgG (Gammanorm) (human); assay: dynamic binding capacity; matrix A33, ligand […]; conditions: ligand content 6.5 mg/ml
[34] = molecular target: human polyclonal IgG (Gammanorm) (human); assay: dynamic binding capacity; matrix A20, ligand […]
[35] = molecular target: human polyclonal IgG (Gammanorm) (human); assay: dynamic binding capacity; matrix A56, ligand 15.2 mg/ml
[36] = molecular target: human polyclonal IgG (Gammanorm) (human); assay: dynamic binding capacity; matrix P10, ligand 19.0 mg/ml
[37] = molecular target: human polyclonal IgG (Gammanorm) (human); assay: pH 6-3 citrate gradient elution from column, peak 1; ligand […]
[38] = molecular target: human polyclonal IgG (Gammanorm) (human); assay: dynamic binding capacity; matrix A62a, ligand 9.6 mg/ml
[39] = molecular target: human polyclonal IgG (Gammanorm) (human); assay: dynamic binding capacity; matrix C3, ligand […]
[40] = molecular target: human polyclonal IgG (Gammanorm) (human); assay: dynamic binding capacity; matrix C3, ligand 11.9 mg/ml
[41] = molecular target: human polyclonal IgG (Gammanorm) (human); assay: dynamic binding capacity; matrix A56-2, ligand […]
[42] = molecular target: human polyclonal IgG (Gammanorm) (human); assay: dynamic binding capacity; matrix A56-2, ligand 12.5 mg/ml
[43] = molecular target: human polyclonal IgG (Gammanorm) (human); assay: dynamic binding capacity; matrix A38, ligand […]
[44] = molecular target: human polyclonal IgG (Gammanorm) (human); assay: dynamic binding capacity; matrix A63b, ligand 16.7 mg/ml
[45] = molecular target: human polyclonal IgG (Gammanorm) (human); assay: dynamic binding capacity; matrix H31, ligand […]
[46] = molecular target: human polyclonal IgG (Gammanorm) (human); assay: dynamic binding capacity; matrix H40, ligand […]; conditions: ligand content 6.9 mg/ml
[47] = molecular target: human polyclonal IgG (Gammanorm) (human); assay: dynamic binding capacity; matrix H35, ligand […]
[48] = molecular target: human polyclonal IgG (Gammanorm) (human); assay: dynamic binding capacity; matrix A20, ligand 6.4 mg/ml
[49] = molecular target: human polyclonal IgG (Gammanorm) (human); assay: dynamic binding capacity; matrix C4, ligand 11.2 mg/ml
[50] = molecular target: human polyclonal IgG (Gammanorm) (human); assay: dynamic binding capacity; matrix H35, ligand 20.3 mg/ml
[51] = molecular target: human polyclonal IgG (Gammanorm) (human); assay: dynamic binding capacity; matrix C4, ligand 15.2 mg/ml
[52] = molecular target: human polyclonal IgG (Gammanorm) (human); assay: dynamic binding capacity; matrix A56, ligand […]; conditions: ligand content 7.1 mg/ml
[53] = molecular target: human polyclonal IgG (Gammanorm) (human); assay: dynamic binding capacity, measured after 24 h cumulative exposure to 0.5 M NaOH; ligand 10.8 mg/ml on agarose beads
[54] = molecular target: human polyclonal IgG (Gammanorm) (human); assay: dynamic binding capacity, 6 min residence; ligand 10.8 mg/ml on agarose beads

“MabSelect SuRe LX (GE Healthcare Life Sciences)” was tested, and the Elution pH [1] was 3.7 pH and the Elution pH [2] was 4.01 pH.
Substance “Zvar(N11K, H18K, S33K, D37E, A42R, N43A, L44I, K50R, L51Y)4 with an additional N-terminal cysteine (Examples 4 and 5) (designed binder)” has an Initial IgG capacity Qb10 [3] of 62.1 mg/mL, a Remaining IgG capacity Qb10 after six 4 h cycles [4] of 52 mg/mL and a Remaining IgG capacity Qb10 after six 4 h cycles [5] of 48.1 mg/mL. For the same substance, the Initial IgG capacity Qb10 [6] was 56.3 mg/mL.
“Zvar(Q9A, N11E, N28A, N43A)4 with an additional N-terminal cysteine (Example 4) (designed binder)” showed an Initial IgG capacity Qb10 [7] of 49.1 mg/mL, a Remaining IgG capacity Qb10 after six 4 h cycles [8] of 46.2 mg/mL and a Remaining IgG capacity Qb10 after six 4 h cycles [9] of 44.1 mg/mL. For the same substance, the Initial IgG capacity Qb10 [10] was 50 mg/mL.
Work on “Zvar(Q9A, N11E, Q40V, A42K, N43A, L44I)1 (designed binder)” yielded a Kd [11] of 1.07 nM, a koff [11] of 0.000437 s⁻¹ and a kon [11] of 410000 M⁻¹ s⁻¹.
“Zvar(Q9A, N11E, Q40V, A42K, N43A, L44I)4 with an additional N-terminal cysteine (Examples 4 and 5) (designed binder)” was tested, and the Remaining IgG capacity Qb10 after six 4 h cycles [8] was 53.6 mg/mL, the Remaining IgG capacity Qb10 after six 4 h cycles [12] was 56 mg/mL and the Initial IgG capacity Qb10 [13] was 49 mg/mL. It also gave an Initial IgG capacity Qb10 [10] of 56.3 mg/mL, an Initial IgG capacity Qb10 [14] of 60.3 mg/mL and a Remaining IgG capacity Qb10 after six 4 h cycles [15] of 44.2 mg/mL.
Work on “Zvar(Q9A, N11E, Q40V, A42K, N43A, L44I)6 (designed binder)” yielded a Qb10% 2.4 min [16] of 61 mg/mL, a Qb10% 6 min [16] of 82 mg/mL and a Qb10% 2.4 min [17] of 62 mg/mL. It also gave a Qb10% 6 min [17] of 84 mg/mL, a Qb10% 2.4 min [18] of 38 mg/mL and a Qb10% 6 min [18] of 46 mg/mL. For the same substance, the Qb10% 2.4 min [19] was 44 mg/mL, the Qb10% 6 min [19] was 43 mg/mL and the Qb10% 2.4 min [20] was 31 mg/mL. It also gave a Qb10% 6 min [20] of 54 mg/mL, a Qb10% 2.4 min [21] of 31 mg/mL and a Qb10% 6 min [21] of 52 mg/mL. The Qb10% 2.4 min [22] was 47 mg/mL, the Qb10% 6 min [22] was 55 mg/mL and the Qb10% 2.4 min [23] was 55 mg/mL. The Qb10% 6 min [23] was 80 mg/mL, the Qb10% 2.4 min [24] was 49 mg/mL and the Qb10% 6 min [24] was 60 mg/mL. For the same substance, the Qb10% 2.4 min [25] was 48 mg/mL, the Qb10% 6 min [25] was 72 mg/mL and the Qb10% 2.4 min [26] was 36 mg/mL. For the same substance, the Qb10% 6 min [26] was 62 mg/mL, the Qb10% 2.4 min [27] was 38 mg/mL and the Qb10% 6 min [27] was 65 mg/mL. The Qb10% 2.4 min [28] was 42 mg/mL, the Qb10% 6 min [28] was 46 mg/mL and the Elution pH [29] was 3.81 pH. It also gave a Qb10% 2.4 min [30] of 56 mg/mL, a Qb10% 6 min [30] of 75 mg/mL and a Qb10% 2.4 min [31] of 43 mg/mL. For the same substance, the Qb10% 6 min [31] was 61 mg/mL, the Qb10% 2.4 min [32] was 41 mg/mL and the Qb10% 6 min [32] was 65 mg/mL. It also gave a Qb10% 2.4 min [33] of 44 mg/mL, a Qb10% 6 min [33] of 53 mg/mL and a Qb10% 2.4 min [34] of 38 mg/mL. For the same substance, the Qb10% 6 min [34] was 64 mg/mL, the Qb10% 2.4 min [35] was 48 mg/mL and the Qb10% 6 min [35] was 76 mg/mL. It also gave a Qb10% 6 min [36] of 76 mg/mL, an Elution pH [37] of 4.24 pH and a Qb10% 2.4 min [38] of 56 mg/mL. The Qb10% 6 min [38] was 72 mg/mL, the Qb10% 2.4 min [39] was 48 mg/mL and the Qb10% 6 min [39] was 59 mg/mL. For the same substance, the Qb10% 2.4 min [40] was 51 mg/mL, the Qb10% 6 min [40] was 73 mg/mL and the Qb10% 2.4 min [41] was 50 mg/mL. For the same substance, the Qb10% 6 min [41] was 58 mg/mL, the Qb10% 2.4 min [42] was 59 mg/mL and the Qb10% 6 min [42] was 72 mg/mL. The Qb10% 2.4 min [43] was 47 mg/mL, the Qb10% 6 min [43] was 57 mg/mL and the Qb10% 2.4 min [44] was 53 mg/mL. The Qb10% 6 min [44] was 69 mg/mL, the Qb10% 2.4 min ([45]; ligand content 6.5 mg/ml) was 37 mg/mL and the Qb10% 6 min ([45]; ligand content 6.5 mg/ml) was 38 mg/mL. For the same substance, the Qb10% 2.4 min ([45]; ligand content 10.4 mg/ml) was 50 mg/mL, the Qb10% 6 min ([45]; ligand content 10.4 mg/ml) was 61 mg/mL and the Qb10% 2.4 min [46] was 50 mg/mL. It also gave a Qb10% 6 min [46] of 56 mg/mL, a Qb10% 2.4 min [47] of 36 mg/mL and a Qb10% 6 min [47] of 49 mg/mL. The Qb10% 2.4 min [48] was 41 mg/mL, the Qb10% 6 min [48] was 56 mg/mL and the Qb10% 2.4 min [49] was 62 mg/mL. The Qb10% 6 min [49] was 74 mg/mL, the Qb10% 2.4 min [50] was 20 mg/mL and the Qb10% 6 min [50] was 43 mg/mL. For the same substance, the Qb10% 2.4 min [51] was 57 mg/mL, the Qb10% 6 min [51] was 82 mg/mL and the Qb10% 2.4 min [52] was 48 mg/mL. The Qb10% 6 min [52] was 57 mg/mL.
“Zvar(Q9A, N11K, H18K, D37E, A42R)4 with an additional N-terminal cysteine (Example 4) (designed binder)” showed a Remaining IgG capacity Qb10 after six 4 h cycles [53] of 52.5 mg/mL and an Initial IgG capacity Qb10 [54] of 56.9 mg/mL.
